Measurements from the array DNA melting data of Ke et al..

Assay: melting temperature; melt of duplexes
Conditions: sodium 0.0675 M; strand 1 µM

Substance | Tm [°C]
CGACGTGCGAAATGTGCTG+CAGCACATCTGGCACGTCG ((((((((.(.((((((((+)))))))).).)))))))) | 50.6
CGACGTGCATTATGTGCTG+CAGCACATAATGCACGTCG (((((((((((((((((((+))))))))))))))))))) | 60.7
CGACGTGCCGGATGTGCTG+CAGCACATTTAGCACGTCG ((((((((...((((((((+))))))))...)))))))) | 49.4
CGACGTGCAGGATGTGCTG+CAGCACATACAGCACGTCG ((((((((.(.((((((((+)))))))).).)))))))) | 55
CGACGTGCGGCATGTGCTG+CAGCACATGCCGCACGTCG (((((((((((((((((((+))))))))))))))))))) | 68.9
CGACGTGCGGTATGTGCTG+CAGCACATTGCGCACGTCG (((((((((..((((((((+))))))))..))))))))) | 55.4
CGACGTGCAGAATGTGCTG+CAGCACATACAGCACGTCG ((((((((.(.((((((((+)))))))).).)))))))) | 52
CGACGTGCCTTATGTGCTG+CAGCACATCCCGCACGTCG ((((((((...((((((((+))))))))...)))))))) | 46.8
CGACGTGCGGAATGTGCTG+CAGCACATTCTGCACGTCG ((((((((.((((((((((+)))))))))).)))))))) | 61.1
CGACGTGCATAATGTGCTG+CAGCACATCGCGCACGTCG ((((((((...((((((((+))))))))...)))))))) | 46.9
CGACGTGCGACATGTGCTG+CAGCACATTCTGCACGTCG ((((((((...((((((((+))))))))...)))))))) | 51.3
CGACGTGCACCATGTGCTG+CAGCACATCAGGCACGTCG ((((((((...((((((((+))))))))...)))))))) | 42.9
CGACGTGCCAGATGTGCTG+CAGCACATGCAGCACGTCG ((((((((...((((((((+))))))))...)))))))) | 51.2
CGACGTGCCGTATGTGCTG+CAGCACATTAAGCACGTCG ((((((((...((((((((+))))))))...)))))))) | 49.1
CGACGTGCGATATGTGCTG+CAGCACATCGCGCACGTCG (((((((((..((((((((+))))))))..))))))))) | 53.6
CGACGTGCTCGATGTGCTG+CAGCACATAATGCACGTCG ((((((((...((((((((+))))))))...)))))))) | 49.7
CGACGTGCCACATGTGCTG+CAGCACATGGTGCACGTCG ((((((((..(((((((((+)))))))))..)))))))) | 53.2
CGACGTGCCCGATGTGCTG+CAGCACATCTGGCACGTCG (((((((((.(((((((((+))))))))).))))))))) | 59.1

Substance | Tm [°C]
CGACGTGCCTTATGTGCTG+CAGCACATCTAGCACGTCG ((((((((...((((((((+))))))))...)))))))) | 48.1
CGACGTGCCAGATGTGCTG+CAGCACATCAGGCACGTCG (((((((((.(((((((((+))))))))).))))))))) | 59.8
CGACGTGCCCCATGTGCTG+CAGCACATCCGGCACGTCG (((((((((..((((((((+))))))))..))))))))) | 51.4
CGACGTGCTGTATGTGCTG+CAGCACATCACGCACGTCG ((((((((...((((((((+))))))))...)))))))) | 50.7
CGACGTGCCCCATGTGCTG+CAGCACATGCCGCACGTCG ((((((((..(((((((((+)))))))))..)))))))) | 50.3
CGACGTGCACGATGTGCTG+CAGCACATAGCGCACGTCG ((((((((.(.((((((((+)))))))).).)))))))) | 50.3
CGACGTGCGATATGTGCTG+CAGCACATATCGCACGTCG (((((((((((((((((((+))))))))))))))))))) | 64.1
CGACGTGCGGTATGTGCTG+CAGCACATCAAGCACGTCG ((((((((...((((((((+))))))))...)))))))) | 54
CGACGTGCTGAATGTGCTG+CAGCACATAAAGCACGTCG (((((((((..((((((((+))))))))..))))))))) | 55.5
CGACGTGCTTAATGTGCTG+CAGCACATCGTGCACGTCG ((((((((...((((((((+))))))))...)))))))) | 43.3
CGACGTGCTAGATGTGCTG+CAGCACATCGGGCACGTCG ((((((((..(((((((((+)))))))))..)))))))) | 57
CGACGTGCGTAATGTGCTG+CAGCACATGCCGCACGTCG (((((((((..((((((((+))))))))..))))))))) | 54.9
CGACGTGCCTAATGTGCTG+CAGCACATGACGCACGTCG ((((((((.(.((((((((+)))))))).).)))))))) | 46.4
CGACGTGCATAATGTGCTG+CAGCACATGACGCACGTCG ((((((((.(.((((((((+)))))))).).)))))))) | 50.5
CGACGTGCGCCATGTGCTG+CAGCACATGTAGCACGTCG ((((((((..(((((((((+)))))))))..)))))))) | 55.1
CGACGTGCAACATGTGCTG+CAGCACATAAAGCACGTCG ((((((((...((((((((+))))))))...)))))))) | 48.9
CGACGTGCGTTATGTGCTG+CAGCACATAAGGCACGTCG ((((((((.((((((((((+)))))))))).)))))))) | 56.5
CGACGTGCTACATGTGCTG+CAGCACATTTGGCACGTCG ((((((((.(.((((((((+)))))))).).)))))))) | 51.1
